Literature values as cited in PMC6396024, “Artemin and an Artemin-Derived Peptide, Artefin, Induce Neuronal Survival, and Differentiation Through Ret and NCAM” (Frontiers in Molecular Neuroscience, 2019).

Test system: NCAM
Conditions: ref Paratcha et al., 2003; Nielsen et al., 2009; cited from earlier work
Text: We have previously shown that the GDNF-binding site for NCAM is localized to the heel region and that gliafin, a GDNF-derived peptide covering this region, binds to NCAM ([Nielsen et al., 2009]). As the tertiary structure of ARTN is similar to that of GDNF, we speculated that the artefin motif also contains a potential binding site for NCAM. […] Whether NCAM can be an alternative receptor for other GFLs has been establish ...

B1: GDNF: glial cell line-derived neurotrophic factor (protein, UniProt P39905 78-211, looked up)
Glial cell line-derived …: SPDKQMAVLPRRERNRQAAAANPENSRGKGRRGQRGKNRGCVLTAIHLNVTDLGLGYETKEELIFRYCSGSCDAAETTYDKILKNLSRNRRLVSDKVGQACCRPIAFDDDLSFLDDNLVYHILRKHSAKRCGCI
In the case of B1, the “interaction with NCAM” value is listed as “interacts directly with NCAM”.
